B1: Rv1196: MTB antigen currently included in TB vaccines in clinical development (protein, UniProt L7N675 1-391, looked up)
PPE family protein PPE18: MVDFGALPPEINSARMYAGPGSASLVAAAQMWDSVASDLFSAASAFQSVVWGLTVGSWIGSSAGLMVAAASPYVAWMSVTAGQAELTAAQVRVAAAAYETAYGLTVPPPVIAENRAELMILIATNLLGQNTPAIAVNEAEYGEMWAQDAAAMFGYAAATATATATLLPFEEAPEMTSAGGLLEQAAAVEEASDTAAANQLMNNVPQALQQLAQPTQGTTPSSKLGGLWKTVSPHRSPISNMVSMANNHMSMTNSGVSMTNTLSSMLKGFAPAAAAQAVQTAAQNGVRAMSSLGSSLGSSGLGGGVAANLGRAASVGSLSVPQAWAAANQAVTPAARALPLTSLTSAAERGPGQMLGGLPVGQMGARAGGGLSGVLRVPPRPYVMPHSPAAG
B2: Rv1886c: MTB antigen currently included in TB vaccines in clinical development (protein, UniProt P9WQP1 41-325, looked up)
Diacylglycerol …: FSRPGLPVEYLQVPSPSMGRDIKVQFQSGGNNSPAVYLLDGLRAQDDYNGWDINTPAFEWYYQSGLSIVMPVGGQSSFYSDWYSPACGKAGCQTYKWETFLTSELPQWLSANRAVKPTGSAAIGLSMAGSSAMILAAYHPQQFIYAGSLSALLDPSQGMGPSLIGLAMGDAGGYKAADMWGPSSDPAWERNDPTQQIPKLVANNTRLWVYCGNGTPNELGGANIPAEFLENFVRSSNLKFQDAYNAAGGHNAVFNFPPNGTHSWEYWGAQLNAMKGDLQSSLGAG
B3: Rv0288: MTB antigen currently included in TB vaccines in clinical development (protein, UniProt P9WNK3 1-96, looked up)
ESAT-6-like protein EsxH: MSQIMYNYPAMLGHAGDMAGYAGTLQSLGAEIAVEQAALQSAWQGDTGITYQAWQAQWNQAMEDLVRAYHAMSSTHEANTMAMMARDTAEAAKWGG

System: T cells of LTBI and HC donors
Assay: antigen reactivity in LTBI vs HC donors (LTBI-specific or crossreactive)
Format: cell-based, human
Settings: response frequency and magnitude in LTBI vs HC donors, FIG. 10
Description: The data herein implies that preexisting immunity and occasional boosting might be provided by exposure to NTMs, in a low MTB-complex exposure population such as the one from the general San Diego area. This might be viewed as desirable, or alternatively contributing an undesired confounding factor in evaluation of vaccination strategies. Regardless, whether or not preexisting, non-TB-complex related reactivity is present in the general population is an important issue has implication for the development of vaccination strategies. To further investigate this issue, epitope reactivity data (Lindestamm-Arlehamn et al, 2012) was mapped back to the specific antigens from which the epitopes were derived. Antigens recognized by 2 or more donors were further categorized as LTBI-specific or crossreactive according to the following criteria; antigens were categorized as LTBI-specific if there was a lack of reactivity in HC individuals, or if the ratio between response frequency and total SFC for LTBI/HC were >4. All other antigens were categorized as crossreactive.

Molecule | antigen reactivity category (LTBI-specific or crossreactive)
B1 | exclusively specific
B2 | widely cross-reactive
B3 | widely cross-reactive

Source: patent US10406218B2 (priority 2014, dated 2019)
